These are literature values, as cited in patent US20250326839A1, “TREATMENT OF DISEASES RELATED TO COLONY-STIMULATING FACTOR 1 RECEPTOR DYSFUNCTION USING TREM2 AGONISTS” (Vigil Neuroscience, Inc., priority 2020, published 2025).

Where two headings read alike, the source gives them in different places. Marks after values point to notes of the source that are not given here.

The target of the data set is T1, TREM2 (Homo sapiens, UniProt Q9NZC2).
T1 sequence (Q9NZC2 19-230): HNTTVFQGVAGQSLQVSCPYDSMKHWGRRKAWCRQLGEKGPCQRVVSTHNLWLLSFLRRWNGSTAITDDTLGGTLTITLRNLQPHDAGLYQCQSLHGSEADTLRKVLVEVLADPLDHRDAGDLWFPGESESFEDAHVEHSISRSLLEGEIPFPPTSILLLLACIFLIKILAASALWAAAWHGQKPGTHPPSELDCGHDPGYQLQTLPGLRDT
As to conditions: cited from earlier work.

The mark [1] stands for this setting: 10 nM Ab concentration (values not marked *).

B1: V87: 6E7 variant: VH T30R, T58V, S63D, Q99S; VL N56W (antibody, V domains shown)
VH: EVQLVQSGAEVKKPGESLKISCKGSGYSFRSYWIAWVRQMPGKGLEWMGIIYPGDSDVRYSPDFQGQVTISADKSISTAYLQWSSLKASDTAMYFCARSRTFYYDSSDYFDYWGQGTLVTVSS
VL: DIQMTQSPSSVSASVGDRVTITCRASQGISSWLAWYQQKPGKAPKLLIYAASSLQWGVPSRFSGSGSGTDFTLTISSLQPEDFATYFCQQADSFPRTFGQGTKLEIK
For B1, the “Binding Signal (fold over 6E7 parental antibody) 1st screen 110 nM or 10 nM” value under setting [1] was 3.84 fold over 6E7 parental antibod. Also, for the setting “2nd screen”, the “Binding Signal (fold over 6E7 parental antibody) 2nd screen 2 nM” value was 4.86 fold over 6E7 parental antibod and the “Binding Signal (fold over 6E7 parental antibody) 2nd screen 10 nM” value is 3.93 fold over 6E7 parental antibod.

B2: V13: 6E7 variant: VH T30G, P62A, Q99G; VL N56G, F94M (antibody, V domains shown)
VH: EVQLVQSGAEVKKPGESLKISCKGSGYSFGSYWIAWVRQMPGKGLEWMGIIYPGDSDTRYSASFQGQVTISADKSISTAYLQWSSLKASDTAMYFCARGRTFYYDSSDYFDYWGQGTLVTVSS
VL: DIQMTQSPSSVSASVGDRVTITCRASQGISSWLAWYQQKPGKAPKLLIYAASSLQGGVPSRFSGSGSGTDFTLTISSLQPEDFATYFCQQADSMPRTFGQGTKLEIK
As to B2, the “Binding Signal (fold over 6E7 parental antibody) 1st screen 110 nM or 10 nM” value under setting [1] is recorded as 1.31 fold over 6E7 parental antibod. Moreover, under “2nd screen”, the “Binding Signal (fold over 6E7 parental antibody) 2nd screen 2 nM” value is 1.15 fold over 6E7 parental antibod and the “Binding Signal (fold over 6E7 parental antibody) 2nd screen 10 nM” value was 1.35 fold over 6E7 parental antibod.

B3: V24: 6E7 variant: VH T58V, Q99S; VL N56K, R96H (antibody, V domains shown)
VH: EVQLVQSGAEVKKPGESLKISCKGSGYSFTSYWIAWVRQMPGKGLEWMGIIYPGDSDVRYSPSFQGQVTISADKSISTAYLQWSSLKASDTAMYFCARSRTFYYDSSDYFDYWGQGTLVTVSS
VL: DIQMTQSPSSVSASVGDRVTITCRASQGISSWLAWYQQKPGKAPKLLIYAASSLQKGVPSRFSGSGSGTDFTLTISSLQPEDFATYFCQQADSFPHTFGQGTKLEIK
In the case of B3, under setting [1], the “Binding Signal (fold over 6E7 parental antibody) 1st screen 110 nM or 10 nM” value is given as 2.64 fold over 6E7 parental antibod. For the same molecule, for the setting “2nd screen”, the “Binding Signal (fold over 6E7 parental antibody) 2nd screen 2 nM” value was 1.42 fold over 6E7 parental antibod and the “Binding Signal (fold over 6E7 parental antibody) 2nd screen 10 nM” value was 2.90 fold over 6E7 parental antibod.

B4: V17: 6E7 variant: VH T30G, Q99S; VL L54R, F94S (antibody, V domains shown)
VH: EVQLVQSGAEVKKPGESLKISCKGSGYSFGSYWIAWVRQMPGKGLEWMGIIYPGDSDTRYSPSFQGQVTISADKSISTAYLQWSSLKASDTAMYFCARSRTFYYDSSDYFDYWGQGTLVTVSS
VL: DIQMTQSPSSVSASVGDRVTITCRASQGISSWLAWYQQKPGKAPKLLIYAASSRQNGVPSRFSGSGSGTDFTLTISSLQPEDFATYFCQQADSSPRTFGQGTKLEIK
As to B4, the “Binding Signal (fold over 6E7 parental antibody) 1st screen 110 nM or 10 nM” value under setting [1] is reported as 5.37 fold over 6E7 parental antibod. Under “2nd screen”, the “Binding Signal (fold over 6E7 parental antibody) 2nd screen 2 nM” value is on record as 4.22 fold over 6E7 parental antibod and the “Binding Signal (fold over 6E7 parental antibody) 2nd screen 10 nM” value is given as 5.51 fold over 6E7 parental antibod.

B5: V16: 6E7 variant: VH F29M, S56G, Q99S; VL S53N (antibody, V domains shown)
VH: EVQLVQSGAEVKKPGESLKISCKGSGYSMTSYWIAWVRQMPGKGLEWMGIIYPGDGDTRYSPSFQGQVTISADKSISTAYLQWSSLKASDTAMYFCARSRTFYYDSSDYFDYWGQGTLVTVSS
VL: DIQMTQSPSSVSASVGDRVTITCRASQGISSWLAWYQQKPGKAPKLLIYAASNLQNGVPSRFSGSGSGTDFTLTISSLQPEDFATYFCQQADSFPRTFGQGTKLEIK
For the molecule B5, the “Binding Signal (fold over 6E7 parental antibody) 1st screen 110 nM or 10 nM” value under setting [1] is listed as 4.01 fold over 6E7 parental antibod. For the same molecule, for the setting “2nd screen”, the “Binding Signal (fold over 6E7 parental antibody) 2nd screen 2 nM” value was 3.57 fold over 6E7 parental antibod and the “Binding Signal (fold over 6E7 parental antibody) 2nd screen 10 nM” value is recorded as 4.04 fold over 6E7 parental antibod.

B6: V15: 6E7 variant: VH T30A, I50T, Q99S; VL S53W, F94Y (antibody, V domains shown)
VH: EVQLVQSGAEVKKPGESLKISCKGSGYSFASYWIAWVRQMPGKGLEWMGTIYPGDSDTRYSPSFQGQVTISADKSISTAYLQWSSLKASDTAMYFCARSRTFYYDSSDYFDYWGQGTLVTVSS
VL: DIQMTQSPSSVSASVGDRVTITCRASQGISSWLAWYQQKPGKAPKLLIYAASWLQNGVPSRFSGSGSGTDFTLTISSLQPEDFATYFCQQADSYPRTFGQGTKLEIK
As for B6, the “Binding Signal (fold over 6E7 parental antibody) 1st screen 110 nM or 10 nM” value under setting [1] is 5.23 fold over 6E7 parental antibod. For the same molecule, where the note is “2nd screen”, the “Binding Signal (fold over 6E7 parental antibody) 2nd screen 2 nM” value is reported as 4.72 fold over 6E7 parental antibod and the “Binding Signal (fold over 6E7 parental antibody) 2nd screen 10 nM” value is recorded as 4.78 fold over 6E7 parental antibod.

B7: V90: 6E7 variant: VH Y32E; VL S31R (antibody, V domains shown)
VH: EVQLVQSGAEVKKPGESLKISCKGSGYSFTSEWIAWVRQMPGKGLEWMGIIYPGDSDTRYSPSFQGQVTISADKSISTAYLQWSSLKASDTAMYFCARQRTFYYDSSDYFDYWGQGTLVTVSS
VL: DIQMTQSPSSVSASVGDRVTITCRASQGISRWLAWYQQKPGKAPKLLIYAASSLQNGVPSRFSGSGSGTDFTLTISSLQPEDFATYFCQQADSFPRTFGQGTKLEIK
Take B7: under “110 nM Ab concentration (values marked *)”, the “Binding Signal (fold over 6E7 parental antibody) 1st screen 110 nM or 10 nM” value is reported as 0.33* fold over 6E7 parental antibod. The “Binding Signal (fold over 6E7 parental antibody) 2nd screen 100 nM” value (2nd screen, 100 nM) is on record as 0.36 fold over 6E7 parental antibod.

B8: V27: 6E7 variant: VH S61A, Q99S; VL N56R (antibody, V domains shown)
VH: EVQLVQSGAEVKKPGESLKISCKGSGYSFTSYWIAWVRQMPGKGLEWMGIIYPGDSDTRYAPSFQGQVTISADKSISTAYLQWSSLKASDTAMYFCVRSRTFYYDSSDYFDYWGQGTLVTVSS
VL: DIQMTQSPSSVSASVGDRVTITCRASQGISSWLAWYQQKPGKAPKLLIYAASSLQRGVPSRFSGSGSGTDFTLTISSLQPEDFATYFCQQADSFPRTFGQGTKLEIK
As for B8, under setting [1], the “Binding Signal (fold over 6E7 parental antibody) 1st screen 110 nM or 10 nM” value is given as 5.50 fold over 6E7 parental antibod. Besides, for the setting “2nd screen”, the “Binding Signal (fold over 6E7 parental antibody) 2nd screen 2 nM” value is listed as 5.67 fold over 6E7 parental antibod and the “Binding Signal (fold over 6E7 parental antibody) 2nd screen 10 nM” value is on record as 5.69 fold over 6E7 parental antibod.

B9: V26: 6E7 variant: VH A35G, I50T, F102M, Y112A; VL N56R, F94Y (antibody, V domains shown)
VH: EVQLVQSGAEVKKPGESLKISCKGSGYSFTSYWIGWVRQMPGKGLEWMGTIYPGDSDTRYSPSFQGQVTISADKSISTAYLQWSSLKASDTAMYFCARQRTMYYDSSDYFDAWGQGTLVTVSS
VL: DIQMTQSPSSVSASVGDRVTITCRASQGISSWLAWYQQKPGKAPKLLIYAASSLQRGVPSRFSGSGSGTDFTLTISSLQPEDFATYFCQQADSYPRTFGQGTKLEIK
Take B9: the “Binding Signal (fold over 6E7 parental antibody) 1st screen 110 nM or 10 nM” value under setting [1] is given as 3.57 fold over 6E7 parental antibod. In addition, under “2nd screen”, the “Binding Signal (fold over 6E7 parental antibody) 2nd screen 2 nM” value is given as 2.83 fold over 6E7 parental antibod and the “Binding Signal (fold over 6E7 parental antibody) 2nd screen 10 nM” value is given as 3.47 fold over 6E7 parental antibod.

B10: V88: 6E7 variant: VH T30G; VL S53R, N56R, F94S (antibody, V domains shown)
VH: EVQLVQSGAEVKKPGESLKISCKGSGYSFGSYWIAWVRQMPGKGLEWMGIIYPGDSDTRYSPSFQGQVTISADKSISTAYLQWSSLKASDTAMYFCARQRTFYYDSSDYFDYWGQGTLVTVSS
VL: DIQMTQSPSSVSASVGDRVTITCRASQGISSWLAWYQQKPGKAPKLLIYAASRLQRGVPSRFSGSGSGTDFTLTISSLQPEDFATYFCQQADSSPRTFGQGTKLEIK
Regarding B10, the “Binding Signal (fold over 6E7 parental antibody) 1st screen 110 nM or 10 nM” value under setting [1] was 4.92 fold over 6E7 parental antibod. For the same molecule, under “2nd screen”, the “Binding Signal (fold over 6E7 parental antibody) 2nd screen 2 nM” value is reported as 5.57 fold over 6E7 parental antibod and the “Binding Signal (fold over 6E7 parental antibody) 2nd screen 10 nM” value is recorded as 5.30 fold over 6E7 parental antibod.

B11: V25: 6E7 variant: VH T30G, I50L, Q99S; VL Q55A, F94M (antibody, V domains shown)
VH: EVQLVQSGAEVKKPGESLKISCKGSGYSFGSYWIAWVRQMPGKGLEWMGLIYPGDSDTRYSPSFQGQVTISADKSISTAYLQWSSLKASDTAMYFCARSRTFYYDSSDYFDYWGQGTLVTVSS
VL: DIQMTQSPSSVSASVGDRVTITCRASQGISSWLAWYQQKPGKAPKLLIYAASSLANGVPSRFSGSGSGTDFTLTISSLQPEDFATYFCQQADSMPRTFGQGTKLEIK
Turning to B11, the “Binding Signal (fold over 6E7 parental antibody) 1st screen 110 nM or 10 nM” value under setting [1] is given as 4.23 fold over 6E7 parental antibod. Where the note is “2nd screen”, the “Binding Signal (fold over 6E7 parental antibody) 2nd screen 2 nM” value was 3.15 fold over 6E7 parental antibod and the “Binding Signal (fold over 6E7 parental antibody) 2nd screen 10 nM” value is reported as 4.70 fold over 6E7 parental antibod.

B12: V14: 6E7 variant: VH T30G, S56Q, Q99G; VL S53R (antibody, V domains shown)
VH: EVQLVQSGAEVKKPGESLKISCKGSGYSFGSYWIAWVRQMPGKGLEWMGIIYPGDQDTRYSPSFQGQVTISADKSISTAYLQWSSLKASDTAMYFCARGRTFYYDSSDYFDYWGQGTLVTVSS
VL: DIQMTQSPSSVSASVGDRVTITCRASQGISSWLAWYQQKPGKAPKLLIYAASRLQNGVPSRFSGSGSGTDFTLTISSLQPEDFATYFCQQADSFPRTFGQGTKLEIK
Turning to B12, the “Binding Signal (fold over 6E7 parental antibody) 1st screen 110 nM or 10 nM” value under setting [1] is 4.71 fold over 6E7 parental antibod. For the setting “2nd screen”, the “Binding Signal (fold over 6E7 parental antibody) 2nd screen 2 nM” value was 2.57 fold over 6E7 parental antibod and the “Binding Signal (fold over 6E7 parental antibody) 2nd screen 10 nM” value was 4.64 fold over 6E7 parental antibod.
